Measured values from paper PMC11178795, “Hydrogen peroxide is required for light-induced stomatal opening across different plant species” (Nature Communications, 2024).
Each block holds one binder with its values, some of them ahead of it.

Key:
GST-bZIP30 [1] = target: T1, GST-bZIP30 (Arabidopsis thaliana (Mouse-ear cress), UniProt Q9SIG8); experiment: GST pull-down; binding enhanced by 1 mM H2O2 (oxidation of BZR1, Cys63)
T1 chain: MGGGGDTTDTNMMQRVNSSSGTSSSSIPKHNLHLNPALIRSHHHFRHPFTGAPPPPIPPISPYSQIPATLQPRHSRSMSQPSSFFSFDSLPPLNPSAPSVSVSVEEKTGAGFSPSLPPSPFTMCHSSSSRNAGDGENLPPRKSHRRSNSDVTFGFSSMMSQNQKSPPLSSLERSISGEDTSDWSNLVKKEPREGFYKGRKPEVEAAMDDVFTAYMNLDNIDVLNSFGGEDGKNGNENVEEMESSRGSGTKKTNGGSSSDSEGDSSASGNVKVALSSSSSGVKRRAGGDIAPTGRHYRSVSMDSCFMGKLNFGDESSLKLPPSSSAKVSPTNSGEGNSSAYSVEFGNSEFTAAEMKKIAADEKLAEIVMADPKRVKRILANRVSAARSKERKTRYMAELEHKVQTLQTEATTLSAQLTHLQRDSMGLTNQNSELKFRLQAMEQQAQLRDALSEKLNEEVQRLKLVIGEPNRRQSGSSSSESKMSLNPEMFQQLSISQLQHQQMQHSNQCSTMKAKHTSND

GST-bZIP30 [2] = target: T2, GST-bZIP30 (Arabidopsis thaliana, UniProt Q9SIG8 1-519); experiment: pull-down; 1 μg GST fusion on glutathione beads incubated with 1 µg MBP or MBP fusion; 20 mM Tris-HCl pH 7.5, 100 mM NaCl, 1 mM EDTA; with or without 1 mM H2O2; room temperature; washes with 300 mM NaCl, 0.5% Triton X-100; anti-MBP immunoblot; details: both partners purified
T2 construct: bZIP30 transcription factor, Arabidopsis, AT2G21230; full-length coding region without stop codon; destination vector pDEST15 (N-GST); source: Escherichia coli, purified (glutathione beads); not shown: GST, N-terminal, kept
T2 sequence (looked up): T1 chain

MBP-bZIP30 = target: T3, MBP-bZIP30 (Arabidopsis thaliana, UniProt Q9SIG8 1-519); experiment: as above; details: both partners purified
T3 construct: bZIP30 transcription factor, Arabidopsis, AT2G21230; full-length coding region without stop codon; destination vector pMAL2CGW (N-MBP); source: Escherichia coli, purified (amylose resin); not shown: MBP, N-terminal, kept
T3 sequence (looked up): T1 chain

binding result (GST-bZIP30 [1]): binds | binding result (GST-bZIP30 [2]): binds
B1: MBP-BZR1 (natural protein, Arabidopsis thaliana, UniProt Q8S307 1-336, looked up)
chain: MTSDGATSTSAAAAAAAAAAARRKPSWRERENNRRRERRRRAVAAKIYTGLRAQGDYNLPKHCDNNEVLKALCVEAGWVVEEDGTTYRKGCKPLPGEIAGTSSRVTPYSSQNQSPLSSAFQSPIPSYQVSPSSSSFPSPSRGEPNNNMSSTFFPFLRNGGIPSSLPSLRISNSCPVTPPVSSPTSKNPKPLPNWESIAKQSMAIAKQSMASFNYPFYAVSAPASPTHRHQFHTPATIPECDESDSSTVDSGHWISFQKFAQQQPFSASMVPTSPTFNLVKPAPQQMSPNTAAFQEIGQSSEFKFENSQVKPWEGERIHDVGMEDLELTLGNGKARG
notes: BRASSINAZOLE-RESISTANT1 (BZR1), Arabidopsis, AT1G75080; full-length coding region without stop codon; destination vector pMAL2CGW (N-MBP); source: Escherichia coli, purified (amylose resin); not shown: MBP, N-terminal, kept

binding result (MBP-bZIP30): binds
B2: GST-BZR1 (natural protein, Arabidopsis thaliana, UniProt Q8S307 1-336, looked up)
chain: B1 chain
notes: BRASSINAZOLE-RESISTANT1 (BZR1), Arabidopsis, AT1G75080; full-length coding region without stop codon; destination vector pDEST15 (N-GST); source: Escherichia coli, purified (glutathione beads); not shown: GST, N-terminal, kept

binding result (GST-bZIP30 [2]): binds
B3: MBP-KIN10 (enzyme, Arabidopsis thaliana, UniProt Q38997 1-512, looked up)
chain: MDGSGTGSRSGVESILPNYKLGRTLGIGSFGRVKIAEHALTGHKVAIKILNRRKIKNMEMEEKVRREIKILRLFMHPHIIRLYEVIETPTDIYLVMEYVNSGELFDYIVEKGRLQEDEARNFFQQIISGVEYCHRNMVVHRDLKPENLLLDSKCNVKIADFGLSNIMRDGHFLKTSCGSPNYAAPEVISGKLYAGPEVDVWSCGVILYALLCGTLPFDDENIPNLFKKIKGGIYTLPSHLSPGARDLIPRMLVVDPMKRVTIPEIRQHPWFQAHLPRYLAVPPPDTVQQAKKIDEEILQEVINMGFDRNHLIESLRNRTQNDGTVTYYLILDNRFRASSGYLGAEFQETMEGTPRMHPAESVASPVSHRLPGLMEYQGVGLRSQYPVERKWALGLQSRAHPREIMTEVLKALQDLNVCWKKIGHYNMKCRWVPNSSADGMLSNSMHDNNYFGDESSIIENEAAVKSPNVVKFEIQLYKTRDDKYLLDLQRVQGPQFLFLDLCAAFLAQLRVL
notes: KIN10, catalytic subunit of SnRK1, Arabidopsis, AT3G01090; full-length coding region without stop codon; destination vector pMAL2CGW (N-MBP); source: Escherichia coli, purified (amylose resin); not shown: MBP, N-terminal, kept
